This note sets out measurements from patent publication US20240091361A1, “T CELL RECEPTORS TARGETING RAS MUTATIONS AND USES THEREOF” (MEMORIAL SLOAN-KETTERING CANCER CENTER, priority 2021, published 2024).

For assay [1], the target named is T1, peptide-pulsed HLA-A*11:01+ COS-7 target cells (Homo sapiens, UniProt P04439, A114D/D185E/E176A/F33Y/L180Q/S129P/T187R).
T1 construct: Target COS-7 cells were electroporated with mRNA encoding full-length human HLA*11:01; expressed in transfected cells; host or cells: COS-7 cells electroporated with mRNA
Description: Cross-reactivity: IFN-γ ELISA after coculture of RAS TCR-T cells with peptide-pulsed HLA-A*11:01+ COS-7 cells. The format is cell-based. The settings on record: peptides of Tables 7-11 at 1 μM, E:T 1:1, 24 h; background threshold 50 pg/mL. As for the experimental part:
Next, studies were conducted to determine the cross-reactivity potential of RAS-specific TCRs. Individual TCR peptide motifs were scanned against the human proteome to identify potential cross-reactive sequences. Target COS-7 cells were electroporated with mRNA encoding full-length human HLA*11:01 and incubated at 37 degrees overnight to allow HLA-A*11:01 protein expression. […]. The cells were then pulsed with an individual peptide corresponding to its RAS-specific TCR (see Tables 7-11) at a concentration of 1 μM; finally, wild-type (WT) and mutated RAS peptides were included as functional controls. RAS TCR-T cells, expressing individual RAS TCRs 1-5, were added at an E:T ratio of 1:1 and incubated at 37 degrees for 24 h. Supernatants were harvested from coculture wells to perform an ELISA assay to determine levels of IFN-γ production.
In general terms: ELISA stands for enzyme-linked immunosorbent assay.

For assay [2], the target named is T2, GEM (also listed as SEQ ID NOs 82, 106, 130, 141) peptide on HLA-A*11:01 (human).
T2 peptide: AVFGAGGVGK
Description: cytokine release.

Assay [3] addresses T3, KRAS wild type (10-mer) peptide on HLA-A*11:01 (human).
T3 peptide: VVVGAGGVGK
Description: cytokine release.

Assay [4] has as its target T4, KRAS G12D (10-mer; the same sequence in NRAS G12D and HRAS G12D) peptide on HLA-A*11:01 (human).
T4 peptide: VVVGADGVGK
As to the kind of experiment: multimer staining.

B1: TCR 3: T cell receptor targeting RAS G12D peptide; α chain SEQ ID NO: 31, β chain SEQ ID NO: 32 (protein, listed as Homo sapiens)
alpha: MACPGFLWALVISTCLEFSMAQTVTQSQPEMSVQEAETVTLSCTYDTSESDYYLFWYKQPPSRQMILVIRQEAYKQQNATENRFSVNFQKAAKSFSLKISDSQLGDAAMYFCAYRSDGGATNKLIFGTGTLLAVQPNIQNPDPAVYQLRDSKSSDKSVCLFTDFDSQTNVSQSKDSDVYITDKTVLDMRSMDFKSNSAVAWSNKSDFACANAFNNSIIPEDTFFPSPESSCDVKLVEKSFETDTNLNFQNLSVIGFRILLLKVAGFNLLMTLRLWSS
beta: MGPQLLGYVVLCLLGAGPLEAQVTQNPRYLITVTGKKLTVTCSQNMNHEYMSWYRQDPGLGLRQIYYSMNVEVTDKGDVPEGYKVSRKEKRNFPLILESPSPNQTSLYFCASSLGAGGYNSPLHFGNGTRLTVTEDLNKVFPPEVAVFEPSEAEISHTQKATLVCLATGFFPDHVELSWWVNGKEVHSGVSTDPQPLKEQPALNDSRYCLSSRLRVSATFWQNPRNHFRCQVQFYGLSENDEWTQDRAKPVTQIVSAEAWGRADCGFTSVSYQQGVLSATILYEILLGKATLYAVLVSALVLMAMVKRKDF
modifications: Description of sequence: Full alpha-chain; Description of sequence: Full beta-chain
In the case of B1, in assay [1], the “reactivity (IFN-γ) to alternative human peptide sequences possessing the recognition motif” value (from here on “reactivity (IFN-γ)”) was “low level reactivity to a single alternative peptide”.

B2: TCR 4: T cell receptor targeting RAS G12D peptide; α chain SEQ ID NO: 41, β chain SEQ ID NO: 42 (protein, listed as Homo sapiens)
alpha: MMKSLRVLLVILWLQLSWVWSQQKEVEQDPGPLSVPEGAIVSLNCTYSNSAFQYFMWYRQYSRKGPELLMYTYSSGNKEDGRFTAQVDKSSKYISLFIRDSQPSDSATYLCAMGALNSGAGSYQLTFGKGTKLSVIPNIQNPDPAVYQLRDSKSSDKSVCLFTDFDSQTNVSQSKDSDVYITDKTVLDMRSMDFKSNSAVAWSNKSDFACANAFNNSIIPEDTFFPSPESSCDVKLVEKSFETDTNLNFQNLSVIGFRILLLKVAGFNLLMTLRLWSS
beta: MGSRLLCWVLLCLLGAGPVKAGVTQTPRYLIKTRGQQVTLSCSPISGHRSVSWYQQTPGQGLQFLFEYFSETQRNKGNFPGRFSGRQFSNSRSEMNVSTLELGDSALYLCASSLSSGTGTEAFFGQGTRLTVVEDLNKVFPPEVAVFEPSEAEISHTQKATLVCLATGFFPDHVELSWWVNGKEVHSGVSTDPQPLKEQPALNDSRYCLSSRLRVSATFWQNPRNHFRCQVQFYGLSENDEWTQDRAKPVTQIVSAEAWGRADCGFTSVSYQQGVLSATILYEILLGKATLYAVLVSALVLMAMVKRKDF
modifications: Description of sequence: Full alpha-chain; Description of sequence: Full beta-chain
Take B2: the “reactivity (IFN-γ)” value in assay [1] is “did not exhibit reactivity”.

B3: TCR 1 (TCR, V domains shown)
Valpha: GDSVTQMEGPVTLSEEAFLTINCTYTATGYPSLFWYVQYPGEGLQLLLKATKADDKGSNKGFEATYRKETTSFHLEKGSVQVSDSAVYFCALSDRVGGARLMFGDGTQLVVKP
Vbeta: EADIYQTPRYLVIGTGKKITLECSQTMGHDKMYWYQQDPGMELHLIHYSYGVNSTEKGDLSSESTVSRIRTEHFPLTLESARPSHTSQYLCASSEGLYNEQFFGPGTRLTVL
As for B3, the binding result in assay [2] is listed as “no recognition”; in assay [3], “no recognition”; in assay [4], “recognises”.

B4: TCR 1: T cell receptor targeting RAS G12D peptide; α chain SEQ ID NO: 12, β chain SEQ ID NO: 13 (protein, listed as Homo sapiens)
alpha: MNYSPGLVSLILLLLGRTRGDSVTQMEGPVTLSEEAFLTINCTYTATGYPSLFWYVQYPGEGLQLLLKATKADDKGSNKGFEATYRKETTSFHLEKGSVQVSDSAVYFCALSDRVGGARLMFGDGTQLVVKPNIQNPDPAVYQLRDSKSSDKSVCLFTDFDSQTNVSQSKDSDVYITDKTVLDMRSMDFKSNSAVAWSNKSDFACANAFNNSIIPEDTFFPSPESSCDVKLVEKSFETDTNLNFQNLSVIGFRILLLKVAGFNLLMTLRLWSS
beta: MTIRLLCYMGFYFLGAGLMEADIYQTPRYLVIGTGKKITLECSQTMGHDKMYWYQQDPGMELHLIHYSYGVNSTEKGDLSSESTVSRIRTEHFPLTLESARPSHTSQYLCASSEGLYNEQFFGPGTRLTVLEDLKNVFPPEVAVFEPSEAEISHTQKATLVCLATGFYPDHVELSWWVNGKEVHSGVSTDPQPLKEQPALNDSRYCLSSRLRVSATFWQNPRNHFRCQVQFYGLSENDEWTQDRAKPVTQIVSAEAWGRADCGFTSESYQQGVLSATILYEILLGKATLYAVLVSALVLMAMVKRKDSRG
modifications: Description of sequence: Full alpha-chain; Description of sequence: Full beta-chain
Take B4: the “reactivity (IFN-γ)” value in assay [1] is reported as “did not exhibit reactivity”.

B5: TCR 2: T cell receptor targeting RAS G12D peptide; α chain SEQ ID NO: 22, β chain SEQ ID NO: 23 (protein, listed as Homo sapiens)
alpha: MTRVSLLWAVVVSTCLESGMAQTVTQSQPEMSVQEAETVTLSCTYDTSENNYYLFWYKQPPSRQMILVIRQEAYKQQNATENRFSVNFQKAAKSFSLKISDSQLGDTAMYFCAFMYPSQGGSEKLVFGKGMKLTVNPNIQNPDPAVYQLRDSKSSDKSVCLFTDFDSQTNVSQSKDSDVYITDKTVLDMRSMDFKSNSAVAWSNKSDFACANAFNNSIIPEDTFFPSPESSCDVKLVEKSFETDTNLNFQNLSVIGFRILLLKVAGFNLLMTLRLWSS
beta: MGPGLLCWVLLCLLGAGSVETGVTQSPTHLIKTRGQQVTLRCSSQSGHNTVSWYQQALGQGPQFIFQYYREEENGRGNFPPRFSGLQFPNYSSELNVNALELDDSALYLCASSSPGFRSYGYTFGSGTRLTVVEDLNKVFPPEVAVFEPSEAEISHTQKATLVCLATGFFPDHVELSWWVNGKEVHSGVSTDPQPLKEQPALNDSRYCLSSRLRVSATFWQNPRNHFRCQVQFYGLSENDEWTQDRAKPVTQIVSAEAWGRADCGFTSVSYQQGVLSATILYEILLGKATLYAVLVSALVLMAMVKRKDF
modifications: Description of sequence: Full alpha-chain; Description of sequence: Full beta-chain
As to B5, the “reactivity (IFN-γ)” value in assay [1] is on record as “did not exhibit reactivity”.

B6: TCR 5: T cell receptor targeting RAS G12D peptide; α chain SEQ ID NO: 50, β chain SEQ ID NO: 51 (protein, listed as Homo sapiens)
alpha: MKTFAGFSFLFLWLQLDCMSRGEDVEQSLFLSVREGDSSVINCTYTDSSSTYLYWYKQEPGAGLQLLTYIFSNMDMKQDQRLTVLLNKKDKHLSLRIADTQTGDSAIYFCAERDAGNNRKLIWGLGTSLAVNPNIQNPDPAVYQLRDSKSSDKSVCLFTDFDSQTNVSQSKDSDVYITDKTVLDMRSMDFKSNSAVAWSNKSDFACANAFNNSIIPEDTFFPSPESSCDVKLVEKSFETDTNLNFQNLSVIGFRILLLKVAGFNLLMTLRLWSS
beta: MGTRLLCWVVLGFLGTDHTGAGVSQSPRYKVAKRGQDVALRCDPISGHVSLFWYQQALGQGPEFLTYFQNEAQLDKSGLPSDRFFAERPEGSVSTLKIQRTQQEDSAVYLCASSLEGGDTQYFGPGTRLTVLEDLKNVFPPEVAVFEPSEAEISHTQKATLVCLATGFYPDHVELSWWVNGKEVHSGVSTDPQPLKEQPALNDSRYCLSSRLRVSATFWQNPRNHFRCQVQFYGLSENDEWTQDRAKPVTQIVSAEAWGRADCGFTSESYQQGVLSATILYEILLGKATLYAVLVSALVLMAMVKRKDSRG
modifications: Description of sequence: Full alpha-chain; Description of sequence: Full beta-chain
B6: the “reactivity (IFN-γ)” value in assay [1] is recorded as “did not exhibit reactivity”.
